Results as given in article PMC1278935, “Different Catalytic Mechanisms in Mammalian Selenocysteine- and Cysteine-Containing Methionine-R-Sulfoxide Reductases” (PLoS Biology, 2005).

Test system: T1, CN(C)c1ccc(N=Nc2ccc(S(=O)(=O)N[C@@H](CC[S@@+](C)[O-])C(=O)O)cc2)cc1
T1 construct: full-length mouse MsrB2, C-terminal His tag (LEHHHHHH), E. coli BL21(DE3), monomer
Assay: HPLC of dabsyl-Met, Lineweaver-Burk
Format: biochemical, Mus musculus
Settings: 20 mM DTT, 50 mM sodium phosphate pH 7.5, 50 mM NaCl, 37 °C, from E. coli
Description: HPLC of dabsyl-Met, Lineweaver-Burk on MsrB2

Chain of MsrB2 (Mus musculus; H119G) (chain, as listed by the source H119G): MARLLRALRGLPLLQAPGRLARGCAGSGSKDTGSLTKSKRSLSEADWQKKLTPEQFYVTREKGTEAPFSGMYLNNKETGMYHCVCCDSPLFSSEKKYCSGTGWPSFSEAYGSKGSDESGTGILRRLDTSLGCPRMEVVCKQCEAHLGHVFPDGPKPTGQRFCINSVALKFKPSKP
Chain of MsrB2 (Mus musculus; V149E) (chain, as listed by the source V149E): as the sequence (chain, as listed by the source H119G) above, with G119H, V149E counted along it
Chain of MsrB2 (Mus musculus) (chain, as listed by the source): as the sequence (chain, as listed by the source H119G) above, with G119H counted along it

Row | Substance | Km [µM] | kcat [s⁻¹] | Km (MsrB1 numbering) [µM] | kcat (MsrB1 numbering) [s⁻¹]
1 | MsrB2 (Mus musculus) | 310 ± 100 | 0.458 ± 0.0633 | – | –
2 | MsrB2 (Mus musculus; H119G) | – | – | 340 ± 60 | 0.0083 ± 0.0017
3 | MsrB2 (Mus musculus; V149E) | – | – | 140 ± 40 | 0.0933 ± 0.012
